In patent US20150266962A1:

Tests used:
[1] = molecular target: human IL-13Rα2 on the surface of human tumour cell lines (human) (UniProt Q14627); assay: cell-based ELISA on A375 cells (given as ED50)
[2] = molecular target: human IL-13Rα2 on the surface of human tumour cell lines (human) (UniProt Q14627); assay: competition ELISA on A375 cells, competitor biotinylated ch07
[3] = molecular target: human IL-13Rα2 on the surface of human tumour cell lines (human) (UniProt Q14627); assay: FACS, 10 µg/mL, SW626 (ovarian) cells
[4] = molecular target: human IL-13Rα2 on the surface of human tumour cell lines (human) (UniProt Q14627); assay: FACS, 10 µg/mL, H460 (lung, cisplatin resistant) cells
[5] = molecular target: human IL-13Rα2 on the surface of human tumour cell lines (human) (UniProt Q14627); assay: FACS, 10 µg/mL, Hs766T (pancreatic) cells
[6] = molecular target: human IL-13Rα2 on the surface of human tumour cell lines (human) (UniProt Q14627); assay: FACS, 10 µg/mL, PC3MM2 (prostate) cells
[7] = molecular target: human IL-13Rα2 on the surface of human tumour cell lines (human) (UniProt Q14627); assay: FACS, 10 µg/mL, A498 (renal) cells
[8] = molecular target: human IL-13Rα2 on the surface of human tumour cell lines (human) (UniProt Q14627); assay: cell-based or functional assay
[9] = molecular target: human IL-13Rα2 on the surface of human tumour cell lines (human) (UniProt Q14627); assay: FACS, 10 µg/mL, A375 (melanoma) cells
[10] = molecular target: human IL-13Rα2 on the surface of human tumour cell lines (human) (UniProt Q14627); assay: FACS, 10 µg/mL, U87MG (glioblastoma) cells
[11] = molecular target: human IL-13Rα2 on the surface of human tumour cell lines (human) (UniProt Q14627); assay: FACS on A375 cells

Sequence of human IL-13Rα2 on the surface of human tumour cell lines (human) (Q14627 27-380): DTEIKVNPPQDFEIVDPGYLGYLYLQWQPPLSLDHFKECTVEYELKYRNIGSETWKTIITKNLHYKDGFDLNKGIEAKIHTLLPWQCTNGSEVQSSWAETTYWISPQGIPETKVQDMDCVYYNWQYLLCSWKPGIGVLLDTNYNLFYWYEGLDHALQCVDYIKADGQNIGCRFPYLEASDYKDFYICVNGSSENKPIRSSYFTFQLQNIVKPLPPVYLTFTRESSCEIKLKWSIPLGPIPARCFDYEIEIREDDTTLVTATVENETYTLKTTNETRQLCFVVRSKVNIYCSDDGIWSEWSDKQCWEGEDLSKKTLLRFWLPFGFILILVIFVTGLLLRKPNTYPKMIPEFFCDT

B1: hu07 heavy chain v1.5 / light chain v1.0 (antibody, IgG1, V domains shown)
VH: EVQLVESGGGLVQPGGSLRLSCAASGFSLTKYGVHWVRQAPGKGLEWVGVKWAGGSTDYNSALMSRFTISKDNAKNSLYLQMNSLRAEDTAVYYCARDHRDAMDYWGQGTLVTVSS
VL: DIQMTQSPSSLSASVGDRVTITCTASLSVSSTYLHWYQQKPGKAPKLLIYSTSNLASGVPSRFSGSGSGTDFTLTISSLQPEDFATYYCHQYHRSPLTFGGGTKVEIK
Q: Which results are given for B1?
A: EC50 [1]: 1.17 nM; IC50 [2]: 12.3 nM

B2: hu07 heavy chain v1.5 / light chain v1.1 (antibody, IgG1, V domains shown)
VH: EVQLVESGGGLVQPGGSLRLSCAASGFSLTKYGVHWVRQAPGKGLEWVGVKWAGGSTDYNSALMSRFTISKDNAKNSLYLQMNSLRAEDTAVYYCARDHRDAMDYWGQGTLVTVSS
VL: DIQMTQSPSSLSASVGDRVTITCTASLSVSSTYLHWYQQKPGSSPKLLIYSTSNLASGVPSRFSGSGSGTSFTLTISSLQPEDFATYYCHQYHRSPLTFGGGTKVEIK
Q: Which results are given for B2?
A: EC50 [1]: 1.29 nM; IC50 [2]: 19 nM

B3: murine anti-IL-13Rα2 antibody mu07 (antibody, mouse IgG1, V domains shown)
VH: QVQLKESGPGLVAPSQSLSINCTVSGFSLTKYGVHWIRQSPGKGLEWLGVKWAGGSTDYNSALMSRLTISKDNNKSQVFLKMNSLQSDDSAMYYCARDHRDAMDYWGQGTSVTVSS
VL: QVVLTQSPAIMSASPGERVTMTCTASLSVSSTYLHWYHQKPGSSPKLWIYSTSNLASGVPARFSGSGSGTSYSLTISSMEAEDAATYYCHQYHRSPLTFGSGTKLELK
Q: With B3 as the binder, how does the Mean Fluorescent Intensity [3] read?
A: 9000

Q: What about the Mean Fluorescent Intensity [4] of the same binder?
A: 28000

Q: What about the Mean Fluorescent Intensity [5] of the same binder?
A: 13000

Q: And the Mean Fluorescent Intensity [6]?
A: 84000

Q: And the Mean Fluorescent Intensity [7]?
A: 13000

Q: And the % internalization, 15 min, A375 [8]?
A: 63.1%

Q: And the % internalization, 15 min, H460R [8]?
A: 74.4%

Q: What about the % internalization, 15 min, Hs766T [8] of the same binder?
A: 69.6%

Q: And the % internalization, 15 min, PC3MM2 [8]?
A: 88.6%

Q: What about the % internalization, 4 hours, A375 [8] of the same binder?
A: 38.1%

Q: And the % internalization, 4 hours, H460R [8]?
A: 38.4%

Q: What about the % internalization, 4 hours, Hs766T [8] of the same binder?
A: 69%

Q: What about the % internalization, 4 hours, PC3MM2 [8] of the same binder?
A: 50.3%

Q: And the internalized after a 1 hour incubation with A375 cells at 37° C. [8]?
A: 38%

Q: What about the Mean Fluorescent Intensity [9] of the same binder?
A: 53000

Q: What about the Mean Fluorescent Intensity [10] of the same binder?
A: 61000

B4: chimeric antibody ch07 (antibody, human IgG1, V domains shown)
VH: QVQLKESGPGLVAPSQSLSINCTVSGFSLTKYGVHWIRQSPGKGLEWLGVKWAGGSTDYNSALMSRLTISKDNNKSQVFLKMNSLQSDDSAMYYCARDHRDAMDYWGQGTSVTVSS
VL: QVVLTQSPAIMSASPGERVTMTCTASLSVSSTYLHWYHQKPGSSPKLWIYSTSNLASGVPARFSGSGSGTSYSLTISSMEAEDAATYYCHQYHRSPLTFGSGTKLELK
Q: For B4, which EC50 [1] is on record?
A: 0.85 nM

Q: And the IC50 [2]?
A: 17.3 nM

B5: hu07 heavy chain v1.5 paired with chimeric light chain (antibody, V domains shown)
VH: EVQLVESGGGLVQPGGSLRLSCAASGFSLTKYGVHWVRQAPGKGLEWVGVKWAGGSTDYNSALMSRFTISKDNAKNSLYLQMNSLRAEDTAVYYCARDHRDAMDYWGQGTLVTVSS
VL: QVVLTQSPAIMSASPGERVTMTCTASLSVSSTYLHWYHQKPGSSPKLWIYSTSNLASGVPARFSGSGSGTSYSLTISSMEAEDAATYYCHQYHRSPLTFGSGTKLELK
Q: What does the source list for B5?
A: EC50 [1]: 0.87 nM; IC50 [2]: 7.67 nM

B6: humanized antibody hu08 v1.0 HC/v1.1 LC (antibody, IgG1, V domains shown)
VH: EVQLVESGGGLVQPGGSLRLSCAASGFTFSRNGMSWVRQAPGKGLEWVATVSSGGSYIYYADSVKGRFTISRDNAKNSLYLQMNSLRAEDTAVYYCARQGTTALATRFFDVWGQGTLVTVSS
VL: DIQMTQSPSSLSASVGDRVTITCKASQDVGTAVAWYQQIPGKAPKLLIYSASYRSTGVPDRFSGSGSGTDFSFIISSLQPEDFATYYCQHHYSAPWTFGGGTKVEIK
Q: How did the EC50 [11] turn out when B6 was run?
A: 6.52 nM

B7: humanized antibody hu08 v1.1 HC/v1.1 LC (antibody, IgG1, V domains shown)
VH: EVQLVESGGGLVQPGGSLRLSCAASGFTFSRNGMSWVRQTPDKRLEWVATVSSGGSYIYYADSVKGRFTISRDNAKNSLYLQMSSLRAEDTAVYYCARQGTTALATRFFDVWGQGTLVTVSS
VL: DIQMTQSPSSLSASVGDRVTITCKASQDVGTAVAWYQQIPGKAPKLLIYSASYRSTGVPDRFSGSGSGTDFSFIISSLQPEDFATYYCQHHYSAPWTFGGGTKVEIK
Q: Which EC50 [11] does the source give for B7 here?
A: 5.16 nM

B8: humanized antibody hu08 v1.1 HC/v1.0 LC (antibody, IgG1, V domains shown)
VH: EVQLVESGGGLVQPGGSLRLSCAASGFTFSRNGMSWVRQTPDKRLEWVATVSSGGSYIYYADSVKGRFTISRDNAKNSLYLQMSSLRAEDTAVYYCARQGTTALATRFFDVWGQGTLVTVSS
VL: DIQMTQSPSSLSASVGDRVTITCKASQDVGTAVAWYQQKPGKAPKLLIYSASYRSTGVPSRFSGSGSGTDFTLTISSLQPEDFATYYCQHHYSAPWTFGGGTKVEIK
Q: With B8 as the binder, how does the EC50 [11] read?
A: 4.15 nM

B9: murine anti-IL-13Rα2 antibody mu08 (antibody, mouse IgG1, V domains shown)
VH: EVQLVESGGDLVRPGGSLQLSCAASGFTFSRNGMSWVRQTPDRRLEWVATVSSGGSYIYYADSVKGRFTISRDNARNTLYLQMSSLKSEDTAMYYCARQGTTALATRFFDVWGAGTTVTVSS
VL: DIVMTQSHKFISTSVGDRVSITCKASQDVGTAVAWYQQIPGQSPKLLIYSASYRSTGIPDRFTGSGSGTDFSFIISSVQAEDLALYYCQHHYSAPWTFGGGTTLDIK
Q: B9 was tested. Which Mean Fluorescent Intensity [3] did it give?
A: 8000

Q: And the Mean Fluorescent Intensity [4]?
A: 22000

Q: And the Mean Fluorescent Intensity [5]?
A: 14000

Q: And the Mean Fluorescent Intensity [6]?
A: 72000

Q: And the Mean Fluorescent Intensity [7]?
A: 5000

Q: What about the % internalization, 15 min, A375 [8] of the same binder?
A: 68%

Q: And the % internalization, 15 min, H460R [8]?
A: 55.9%

Q: And the % internalization, 15 min, Hs766T [8]?
A: 64.1%

Q: And the % internalization, 15 min, PC3MM2 [8]?
A: 81.9%

Q: What about the % internalization, 4 hours, A375 [8] of the same binder?
A: 61.8%

Q: What about the % internalization, 4 hours, H460R [8] of the same binder?
A: 47.4%

Q: And the % internalization, 4 hours, Hs766T [8]?
A: 76.3%

Q: And the % internalization, 4 hours, PC3MM2 [8]?
A: 41.6%

Q: And the internalized after a 1 hour incubation with A375 cells at 37° C. [8]?
A: 31%

Q: And the Mean Fluorescent Intensity [9]?
A: 46000

Q: And the Mean Fluorescent Intensity [10]?
A: 62000

B10: chimeric antibody ch08 (antibody, human IgG1, V domains shown)
VH: EVQLVESGGDLVRPGGSLQLSCAASGFTFSRNGMSWVRQTPDRRLEWVATVSSGGSYIYYADSVKGRFTISRDNARNTLYLQMSSLKSEDTAMYYCARQGTTALATRFFDVWGAGTTVTVSS
VL: DIVMTQSHKFISTSVGDRVSITCKASQDVGTAVAWYQQIPGQSPKLLIYSASYRSTGIPDRFTGSGSGTDFSFIISSVQAEDLALYYCQHHYSAPWTFGGGTTLDIK
Q: With B10 as the binder, how does the EC50 [11] read?
A: 5.64 nM
